Experiments:
[1] = target: Hsp72 tracer FITC-Ahx-…; test: fluorescence polarisation
[2] = target: DnaJB4 (recombinant, human, full length, wild type) (human) (UniProt Q9UDY4); test: fluorescence polarisation
[3] = target: DnaJB4 (recombinant, human, full length, wild type) (human) (UniProt Q9UDY4); test: differential scanning fluorimetry

| Kd [1] [µM] | % tracer displacement [2] [%] | Tmapp of DnaJB4 with 100 µM peptide [3] [°C] | Substance |
| --- | --- | --- | --- |
| 1 |  |  | CHIP (recombinant human) (from UniProt Q9UNE7 1-303) (natural protein) |
| 2.03 |  |  | DnaJB4 QPD mutant (from UniProt Q9UDY4 1-337) (natural protein) |
|  | 67.6 | 59 | Hsc70 C-terminal 10-mer peptide, unlabeled, N-acetylated |
